# Test results taken from patent US9920295B2, “Bioreactor for isolation of rare cells and methods of use” (The Trustees of the University of Pennsylvania, priority 2012, dated 2018).
# Test system: CD34+-derived cells
# Assay: Apoptosis by cleaved caspase-3 intracellular flow cytometry and Annexin-V
# Assay type: cell-based, human
# Conditions: G-CSF 100 ng/ml; CH-223191 500 nM (4n fraction)
# Method: Cells were fixed with 4% paraformaldehyde in PBS for 10 min, washed with PBS and resuspended in 0.1% saponin in HBSS (staining medium). The samples were then stained with antibodies against cytoplasmic antigens, including NMM-IIA (Sigma), NMM-IIB, phospho-NMM-IIA and caspase-3 (all from Cell Signaling Technology) for 30 min at room temperature. In some cases, cells were concurrently stained with PE anti-CD34 or anti-human CD38 for subpopulation analysis. Cells were then washed and stained with anti-rabbit or mouse secondary antibodies conjugated with Alexa 647 (Invitrogen) for 30 min, followed by analysis on FACSCalibur.
molecule,measurement,value
"G-CSF: human recombinant granulocyte colony-stimulating factor (protein, UniProt P09919 31-207, looked up) Granulocyte …: TPLGPASSLPQSFLLKCLEQVRKIQGDGAALQEKLVSECATYKLCHPEELVLLGHSLGIPWAPLSSCPSQALQLAGCLSQLHSGLFLYQGLLQALEGISPELGPTLDTLQLDVADFATTIWQQMEELGMAPALQPTQGAMPAFASAFQRRAGGVLVASHLQSFLEVSYRVLRHLAQP",viability of untreated CD34+ and CD34− cells,improves the viability
